Data taken from IntAct's records for PubMed 21131967.

B1: Transcription factor p65 (Mus musculus), Q04207 (parent)
chain: MDDLFPLIFPSEPAQASGPYVEIIEQPKQRGMRFRYKCEGRSAGSIPGERSTDTTKTHPTIKINGYTGPGTVRISLVTKDPPHRPHPHELVGKDCRDGYYEADLCPDRSIHSFQNLGIQCVKKRDLEQAISQRIQTNNNPFHVPIEEQRGDYDLNAVRLCFQVTVRDPAGRPLLLTPVLSHPIFDNRAPNTAELKICRVNRNSGSCLGGDEIFLLCDKVQKEDIEVYFTGPGWEARGSFSQADVHRQVAIVFRTPPYADPSLQAPVRVSMQLRRPSDRELSEPMEFQYLPDTDDRHRIEEKRKRTYETFKSIMKKSPFNGPTEPRPPTRRIAVPTRNSTSVPKPAPQPYTFPASLSTINFDEFSPMLLPSGQISNQALALAPSSAPVLAQTMVPSSAMVPLAQPPAPAPVLTPGPPQSLSAPVPKSTQAGEGTLSEALLHLQFDADEDLGALLGNSTDPGVFTDLASVDNSEFQQLLNQGVSMSHSTAEPMLMEYPEAITRLVTGSQRPPDPAPTPLGTSGLPNGLSGDEDFSSIADMDFSALLSQISS
partner: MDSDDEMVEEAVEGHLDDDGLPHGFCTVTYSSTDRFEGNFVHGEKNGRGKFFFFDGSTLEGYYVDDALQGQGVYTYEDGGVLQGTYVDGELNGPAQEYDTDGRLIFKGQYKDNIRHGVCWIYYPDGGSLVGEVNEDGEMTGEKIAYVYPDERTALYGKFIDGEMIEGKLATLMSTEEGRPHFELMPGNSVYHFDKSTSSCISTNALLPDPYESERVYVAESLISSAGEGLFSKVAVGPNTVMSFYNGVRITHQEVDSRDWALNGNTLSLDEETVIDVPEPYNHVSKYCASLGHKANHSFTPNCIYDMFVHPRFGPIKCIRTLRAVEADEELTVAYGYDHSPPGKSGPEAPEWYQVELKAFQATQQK
B2: N-lysine methyltransferase SETD6 (Homo sapiens), Q8TBK2 (parent)
chain: MATQAKRPRVAGPVDGGDLDPVACFLSWCRRVGLELSPKVSERAGGRRTRGGARAALTSPPAQVAVSRQGTVAGYGMVARESVQAGELLFVVPRAALLSQHTCSIGGLLERERVALQSQSGWVPLLLALLHELQAPASRWRPYFALWPELGRLEHPMFWPEEERRCLLQGTGVPEAVEKDLANIRSEYQSIVLPFMEAHPDLFSLRVRSLELYHQLVALVMAYSFQEPLEEEEDEKEPNSPVMVPAADILNHLANHNANLEYSANCLRMVATQPIPKGHEIFNTYGQMANWQLIHMYGFVEPYPDNTDDTADIQMVTVREAALQGTKTEAERHLVYERWDFLCKLEMVGEEGAFVIGREEVLTEEELTTTLKVLCMPAEEFRELKDQDGGGDDKREEGSLTITNIPKLKASWRQLLQNSVLLTLQTYATDLKTDQGLLSNKEVYAKLSWREQQALQVRYGQKMILHQLLELTS
B3: Transcription factor p65 (Mus musculus), Q04207 (parent)
chain: B1 chain
partner: B2 chain

Variants of: B1
Settings: with setd7_human SETD7, Q8WTS6

effect of a mutation on the interaction | Variant
disrupting interaction | MDDLFPLIFPSEPAQASGPYVEIIEQPKQRGMRFRYKCEGRSAGSIPGERSTDTTKTHPTIKINGYTGPGTVRISLVTKDPPHRPHPHELVGKDCRDGYYEADLCPDRSIHSFQNLGIQCVKKRDLEQAISQRIQTNNNPFHVPIEEQRGDYDLNAVRLCFQVTVRDPAGRPLLLTPVLSHPIFDNRAPNTAELKICRVNRNSGSCLGGDEIFLLCDKVQKEDIEVYFTGPGWEARGSFSQADVHRQVAIVFRTPPYADPSLQAPVRVSMQLRRPSDRELSEPMEFQYLPDTDDRHRIEEKRKRTYETFRSIMKKSPFNGPTEPRPPTRRIAVPTRNSTSVPKPAPQPYTFPASLSTINFDEFSPMLLPSGQISNQALALAPSSAPVLAQTMVPSSAMVPLAQPPAPAPVLTPGPPQSLSAPVPKSTQAGEGTLSEALLHLQFDADEDLGALLGNSTDPGVFTDLASVDNSEFQQLLNQGVSMSHSTAEPMLMEYPEAITRLVTGSQRPPDPAPTPLGTSGLPNGLSGDEDFSSIADMDFSALLSQISS [K310R]

Variants of: B2
Settings: with tf65_mouse Rela, Q04207

effect of a mutation on the interaction | Variant
disrupting interaction | MATQAKRPRVAGPVDGGDLDPVACFLSWCRRVGLELSPKVSERAGGRRTRGGARAALTSPPAQVAVSRQGTVAGYGMVARESVQAGELLFVVPRAALLSQHTCSIGGLLERERVALQSQSGWVPLLLALLHELQAPASRWRPYFALWPELGRLEHPMFWPEEERRCLLQGTGVPEAVEKDLANIRSEYQSIVLPFMEAHPDLFSLRVRSLELYHQLVALVMAYSFQEPLEEEEDEKEPNSPVMVPAADILNHLANHNANLEYSANCLRMVATQPIPKGHEIFNTAGQMANWQLIHMYGFVEPYPDNTDDTADIQMVTVREAALQGTKTEAERHLVYERWDFLCKLEMVGEEGAFVIGREEVLTEEELTTTLKVLCMPAEEFRELKDQDGGGDDKREEGSLTITNIPKLKASWRQLLQNSVLLTLQTYATDLKTDQGLLSNKEVYAKLSWREQQALQVRYGQKMILHQLLELTS [Y285A]

Variants of: B3
Settings: with setd6_human SETD6, Q8TBK2

effect of a mutation on the interaction | Variant
disrupting interaction | MDDLFPLIFPSEPAQASGPYVEIIEQPKQRGMRFRYKCEGRSAGSIPGERSTDTTKTHPTIKINGYTGPGTVRISLVTKDPPHRPHPHELVGKDCRDGYYEADLCPDRSIHSFQNLGIQCVKKRDLEQAISQRIQTNNNPFHVPIEEQRGDYDLNAVRLCFQVTVRDPAGRPLLLTPVLSHPIFDNRAPNTAELKICRVNRNSGSCLGGDEIFLLCDKVQKEDIEVYFTGPGWEARGSFSQADVHRQVAIVFRTPPYADPSLQAPVRVSMQLRRPSDRELSEPMEFQYLPDTDDRHRIEEKRKRTYETFRSIMKKSPFNGPTEPRPPTRRIAVPTRNSTSVPKPAPQPYTFPASLSTINFDEFSPMLLPSGQISNQALALAPSSAPVLAQTMVPSSAMVPLAQPPAPAPVLTPGPPQSLSAPVPKSTQAGEGTLSEALLHLQFDADEDLGALLGNSTDPGVFTDLASVDNSEFQQLLNQGVSMSHSTAEPMLMEYPEAITRLVTGSQRPPDPAPTPLGTSGLPNGLSGDEDFSSIADMDFSALLSQISS [K310R]
